Results published in article PMC11189558, “Mutations found in cancer patients compromise DNA binding of the winged helix protein STK19”.

Key:
Experiment in all cases: EMSA; 20 mM HEPES pH 7.4, 100 mM NaCl, 1 mM MgCl2, 1 mg/ml BSA, 2 mM DTT, 5% glycerol; 30 min on ice; native 5% PAGE in 1X TBE
Conditions in all cases: protein: recombinant; tags: GST cleaved; GPLGS left at N-terminus; blunt
STK19 K186E = STK19 K186E (human, UniProt P49842 31-254, K186E)
STK19 R215E/R216E = STK19 R215E/R216E (human, UniProt P49842 31-254, R215E;R216E)
STK19 R200E/K201E/K203E = STK19 R200E/K201E/K203E (human, UniProt P49842 31-254, R200E;K201E;K203E)

Measured: binding result

Sequence of STK19 R215E/R216E (P49842 31-254 R215E/R216E): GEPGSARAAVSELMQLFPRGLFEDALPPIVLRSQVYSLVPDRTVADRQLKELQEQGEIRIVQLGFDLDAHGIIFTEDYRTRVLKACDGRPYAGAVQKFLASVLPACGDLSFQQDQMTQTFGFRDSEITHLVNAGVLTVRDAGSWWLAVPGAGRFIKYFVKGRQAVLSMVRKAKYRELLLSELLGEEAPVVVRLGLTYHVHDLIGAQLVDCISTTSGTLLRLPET
Sequence of STK19 K186E (P49842 31-254 K186E): as the sequence (P49842 31-254 R215E/R216E) above, with K156E, E185R, E186R counted along it
Sequence of STK19 R200E/K201E/K203E (P49842 31-254 R200E/K201E/K203E): as the sequence (P49842 31-254 R215E/R216E) above, with R170E, K171E, K173E, E185R, E186R counted along it

B1: 59 bp dsDNA (dsDNA)
DNA 1: GAGCTGCCGAATTCTACCAGTGCCTTGCTAGGACATCTTTGCCCACCTGCAGGTTCACC
DNA 2: GGTGAACCTGCAGGTGGGCAAAGATGTCCTAGCAAGGCACTGGTAGAATTCGGCAGCTC
no binding: STK19 K186E | STK19 R215E/R216E | STK19 R200E/K201E/K203E
